The record followed here is PMC9482650, “Quantitative fragmentomics allow affinity mapping of interactomes” (Nature Communications, 2022).

Assay in all cases: holdup assay
Common to all, as to set-up: key: below the threshold = too weak to quantify, mostly under pKd 3.1 to 4
Common to all, as to details: plain residues with an end cap or a label only (N-terminal biotin on a linker: ado-ado)

The target in experiment [1] is MAST2, Q6P0Q8.
Experiment [2] deals with GORASP2, Q9H8Y8.
For experiment [3], the target named is T1, LIN7C, Q9NUP9.
T1 sequence (Q9NUP9 88-185, limits assumed, looked up): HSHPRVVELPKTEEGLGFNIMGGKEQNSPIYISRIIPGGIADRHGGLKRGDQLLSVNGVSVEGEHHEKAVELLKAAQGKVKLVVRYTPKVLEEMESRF

Experiment [4] deals with T2, NHERF3_3, Q5T2W1.
T2 sequence (Q5T2W1 238-333, limits assumed, looked up): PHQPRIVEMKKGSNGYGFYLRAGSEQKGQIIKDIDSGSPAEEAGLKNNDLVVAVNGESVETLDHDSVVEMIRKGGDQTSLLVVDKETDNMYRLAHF

Experiment [5] addresses T3, GRIP1_7, Q9Y3R0.
T3 sequence (Q9Y3R0 999-1096, limits assumed, looked up): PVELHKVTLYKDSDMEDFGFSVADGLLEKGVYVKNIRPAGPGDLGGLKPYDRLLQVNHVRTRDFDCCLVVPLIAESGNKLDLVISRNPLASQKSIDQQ

For experiment [6], the target named is T4, SNTB1, Q13884.
T4 sequence (Q13884 107-205, limits assumed, looked up): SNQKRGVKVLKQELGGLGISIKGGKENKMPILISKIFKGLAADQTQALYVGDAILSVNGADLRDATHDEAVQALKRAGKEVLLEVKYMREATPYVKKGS

Experiment [7] deals with Inadl_5, Q8NI35.
Sequence of Inadl_5, Q8NI35 (Q8NI35 673-780): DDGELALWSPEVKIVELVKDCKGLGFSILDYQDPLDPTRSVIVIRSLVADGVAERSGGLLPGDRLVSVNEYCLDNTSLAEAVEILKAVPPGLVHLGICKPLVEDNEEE
Experiment [8] concerns the target LNX1_3, Q8TBB1.
Experiment [9] concerns the target T5, RAPGEF6, Q8TEU7.
T5 sequence (Q8TEU7 525-625, limits assumed, looked up): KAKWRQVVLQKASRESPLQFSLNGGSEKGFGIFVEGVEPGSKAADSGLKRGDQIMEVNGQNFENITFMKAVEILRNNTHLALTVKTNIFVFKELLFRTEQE

The target of experiment [10] is T6, SNTG1, Q9NSN8.
T6 sequence (Q9NSN8 52-150, limits assumed, looked up): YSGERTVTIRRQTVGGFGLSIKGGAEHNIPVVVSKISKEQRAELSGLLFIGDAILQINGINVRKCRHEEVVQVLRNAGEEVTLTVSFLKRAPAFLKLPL

Experiment [11] addresses T7, LIN7A, O14910.
T7 sequence (O14910 103-200, limits assumed, looked up): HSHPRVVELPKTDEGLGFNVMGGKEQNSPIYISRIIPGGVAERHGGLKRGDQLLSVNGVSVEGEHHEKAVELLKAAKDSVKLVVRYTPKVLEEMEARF

Experiment [12] has as its target AHNAK1, Q09666.
Experiment [13] deals with T8, GRIP1_4, Q9Y3R0.
T8 sequence (Q9Y3R0 467-571, limits assumed, looked up): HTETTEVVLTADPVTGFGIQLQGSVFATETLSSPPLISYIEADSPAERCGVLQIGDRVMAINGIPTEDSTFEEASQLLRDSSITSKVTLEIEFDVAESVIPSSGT

Experiment [14] concerns the target PICK1, Q9NRD5.
Experiment [15] deals with MAGI2_5, Q86UL8.
Sequence of MAGI2_5, Q86UL8 (Q86UL8 915-1017): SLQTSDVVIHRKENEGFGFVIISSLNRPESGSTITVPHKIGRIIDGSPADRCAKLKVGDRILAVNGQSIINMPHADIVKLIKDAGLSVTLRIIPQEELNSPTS
Experiment [16] addresses T9, PDZD2_2, O15018.
T9 sequence (O15018 329-429, limits assumed, looked up): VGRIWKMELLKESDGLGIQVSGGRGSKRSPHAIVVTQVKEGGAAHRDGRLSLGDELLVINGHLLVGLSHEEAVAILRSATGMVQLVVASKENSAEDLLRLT

The target of experiment [17] is T10, DFNB31_3, Q9P202.
T10 sequence (Q9P202 811-907, limits assumed, looked up): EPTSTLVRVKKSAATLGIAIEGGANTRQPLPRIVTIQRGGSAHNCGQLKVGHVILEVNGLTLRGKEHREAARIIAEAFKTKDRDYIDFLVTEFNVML

The target of experiment [18] is T11, SYNJ2BP, P57105.
T11 sequence (P57105 8-110, limits assumed, looked up): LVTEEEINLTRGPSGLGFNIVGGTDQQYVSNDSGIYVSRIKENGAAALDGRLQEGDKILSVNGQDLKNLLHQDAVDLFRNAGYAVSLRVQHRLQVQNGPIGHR

In experiment [19] the target is GRID2IP_1, A4D2P6.
Sequence of GRID2IP_1, A4D2P6 (A4D2P6 1-87): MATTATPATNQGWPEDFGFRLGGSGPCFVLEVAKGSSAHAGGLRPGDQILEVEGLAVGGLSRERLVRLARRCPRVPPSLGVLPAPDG
Experiment [20] addresses T12, MPDZ_5, O75970.
T12 sequence (O75970 695-796, limits assumed, looked up): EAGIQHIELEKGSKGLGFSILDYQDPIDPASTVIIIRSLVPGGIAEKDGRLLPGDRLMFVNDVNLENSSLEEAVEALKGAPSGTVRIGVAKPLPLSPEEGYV

Experiment [21] addresses TJP1_3, Q07157.
The target in experiment [22] is T13, PTPN13_1, Q12923.
T13 sequence (Q12923 1088-1188, limits assumed, looked up): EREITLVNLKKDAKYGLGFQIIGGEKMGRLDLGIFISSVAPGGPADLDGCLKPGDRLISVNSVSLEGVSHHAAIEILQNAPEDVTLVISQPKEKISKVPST

Experiment [23] has as its target FRMPD3, Q5JV73.
The target of experiment [24] is FRMPD2_2, Q68DX3.
Sequence of FRMPD2_2, Q68DX3 (Q68DX3 944-1038): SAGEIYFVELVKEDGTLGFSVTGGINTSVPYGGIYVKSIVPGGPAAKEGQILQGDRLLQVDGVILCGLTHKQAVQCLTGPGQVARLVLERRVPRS

Sequence of TJP1_3, Q07157 (Q07157 416-512): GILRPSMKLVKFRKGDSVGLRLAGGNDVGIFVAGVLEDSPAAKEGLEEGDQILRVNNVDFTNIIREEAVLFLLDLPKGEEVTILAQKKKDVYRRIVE
Sequence of AHNAK1, Q09666 (Q09666 4-100): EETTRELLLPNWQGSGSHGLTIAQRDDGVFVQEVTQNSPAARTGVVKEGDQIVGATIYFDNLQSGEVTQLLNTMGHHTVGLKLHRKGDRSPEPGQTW
Sequence of MAST2, Q6P0Q8 (Q6P0Q8 1099-1202): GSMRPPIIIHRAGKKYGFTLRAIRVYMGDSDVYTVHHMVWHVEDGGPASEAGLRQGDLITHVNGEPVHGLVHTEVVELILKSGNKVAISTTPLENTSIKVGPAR
Sequence of PICK1, Q9NRD5 (Q9NRD5 17-115): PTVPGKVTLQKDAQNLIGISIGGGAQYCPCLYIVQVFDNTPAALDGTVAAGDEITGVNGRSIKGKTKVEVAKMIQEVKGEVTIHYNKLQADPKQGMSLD
Sequence of LNX1_3, Q8TBB1 (Q8TBB1 500-596): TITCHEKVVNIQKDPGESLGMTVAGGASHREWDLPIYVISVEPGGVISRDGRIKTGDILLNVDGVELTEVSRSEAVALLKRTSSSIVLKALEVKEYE
Sequence of FRMPD3, Q5JV73 (Q5JV73 12-100): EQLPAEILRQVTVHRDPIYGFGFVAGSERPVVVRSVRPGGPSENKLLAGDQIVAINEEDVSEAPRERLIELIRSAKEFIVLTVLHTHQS

The pKd is the negative decadic logarithm of the Kd, by convention in mol/L. SRPTKGPTLL [PLEKHH2, Q8IVE3]: the negative logarithm of the Kd (pKd) was 5.06 in experiment [1]; 3.6 in [2]; “below the threshold” in experiment [3]; “below the threshold” in experiment [4]; “below the threshold” in [5]; “below the threshold” in [6]. Also, the pKd entry in experiment [7], in experiment [8], in [9], in [10], in [11] and in experiment [12] was “below the threshold” each time. Also, the negative-log Kd (pKd) entry in experiment [13] was “below the threshold”; in experiment [14], “below the threshold”; in experiment [15], “below the threshold”; in experiment [16] it was 3.87; in [17] it was 3.5; in experiment [18], “below the threshold”. Also, the pKd result in experiment [19], in experiment [20], in experiment [21], in experiment [22], in experiment [23] and in experiment [24] was “below the threshold” in each case.

As for PLDSQQHTEV [FAT1, Q14517], the pKd in experiment [1] was 5.21; in [2] it was “below the threshold”; in [3], “below the threshold”; in experiment [4] it was “below the threshold”; in experiment [5], “below the threshold”; in [6], 4.32. Also, the negative-log Kd (pKd) result in experiment [7] was “below the threshold”; in experiment [8], “below the threshold”; in [9] it was “below the threshold”; in experiment [10], 4.04; in [11] it was “below the threshold”; in experiment [12] it was “below the threshold”. Moreover, the negative-log Kd (pKd) entry in experiment [13] is “below the threshold”; in experiment [14] it was “below the threshold”; in [15] it was 4.54; in [16], 4.79; in [17] it was “below the threshold”; in experiment [18], 4.62. The pKd entry in [19] was “below the threshold”; in experiment [20], “below the threshold”; in experiment [21], “below the threshold”; in experiment [22] it was “below the threshold”; in experiment [23] it was “below the threshold”; in experiment [24], 3.73.

As for LTAQEQPVYI [APBA1, Q02410], the pKd result in experiment [1] was “below the threshold”; in [2] it was 4.18; in experiment [3], “below the threshold”; in [4], “below the threshold”; in experiment [5], “below the threshold”; in [6] it was “below the threshold”. Moreover, the pKd is 3.86 in [7]; “below the threshold” in experiment [8]; “below the threshold” in [9]; “below the threshold” in experiment [10]; “below the threshold” in experiment [11]; “below the threshold” in [12]. Besides, the pKd entry is “below the threshold” in experiment [13]; “below the threshold” in experiment [14]; “below the threshold” in experiment [15]; 4.36 in [16]; 3.5 in [17]; “below the threshold” in experiment [18]. In addition, the pKd result is “below the threshold” in [19]; 3.52 in experiment [20]; “below the threshold” in experiment [21]; “below the threshold” in experiment [22]; “below the threshold” in experiment [23]; “below the threshold” in experiment [24].
